Assay results published in the Human Domainome abundance scans (Beltran et al. 2025).
± gives the uncertainty stated by the source.

B1: POU domain, class 3, transcription factor 3, residues 408 to 463; numbered along this chain, P20264 (parent)
chain: KKRTSIEVSVKGALESHFLKCPKPSAQEITNLADSLQLEKEVVRVWFCNRRQKEKR

Variants of: B1
Experiment: abundance fitness (aPCA) (normalised: wild type 0, dead -1); higher = more abundant; growth selection in yeast, the domain comes from the species named
Conditions: Homo sapiens

| Variant | abundance fitness |
| --- | --- |
| KKRTSIEVSVKGALESHFLKCPKPSAQEITNLADSMQLEKEVVRVWFCNRRQKEKR [L36M] | -0.166 ± 0.098 |
| KKRTSIEVSVKGALESHFLKCPKPSAQEITNLADSVQLEKEVVRVWFCNRRQKEKR [L36V] | -0.522 ± 0.07 |
| KKRTSIEVSVKGALESHFLKCPKPSAQEITNLADSSQLEKEVVRVWFCNRRQKEKR [L36S] | -0.866 ± 0.12 |
| KKRTSIEVSVKGALESHFLKCPKPSAQEITNLADSIQLEKEVVRVWFCNRRQKEKR [L36I] | -0.377 ± 0.11 |
| KKRTSIEVSVKGALESHFLKCPKPSAQEITNLADSCQLEKEVVRVWFCNRRQKEKR [L36C] | -0.517 ± 0.15 |
| KKRTSIEVSVKGALESHFLKCPKPSAQEITNLADSHQLEKEVVRVWFCNRRQKEKR [L36H] | -0.434 ± 0.12 |
| KKRTSIEVSVKGALESHFLKCPKPSAQEITNLADSYQLEKEVVRVWFCNRRQKEKR [L36Y] | -0.313 ± 0.11 |
| KKRTSIEVSVKGALESHFLKCPKPSAQEITNLADSRQLEKEVVRVWFCNRRQKEKR [L36R] | -0.955 ± 0.081 |
| KKRTSIEVSVKGALESHFLKCPKPSAQEITNLADSGQLEKEVVRVWFCNRRQKEKR [L36G] | -0.929 ± 0.079 |
| KKRTSIEVSVKGALESHFLKCPKPSAQEITNLADSPQLEKEVVRVWFCNRRQKEKR [L36P] | -1.03 ± 0.18 |
| KKRTSIEVSVKGALESHFLKCPKPSAQEITNLADSDQLEKEVVRVWFCNRRQKEKR [L36D] | -1.02 ± 0.16 |
| KKRTSIEVSVKGALESHFLKCPKPSAQEITNLADSWQLEKEVVRVWFCNRRQKEKR [L36W] | -0.565 ± 0.1 |
| KKRTSIEVSVKGALESHFLKCPKPSAQEITNLADSNQLEKEVVRVWFCNRRQKEKR [L36N] | -0.869 ± 0.19 |
| KKRTSIEVSVKGALESHFLKCPKPSAQEITNLADSFQLEKEVVRVWFCNRRQKEKR [L36F] | -0.177 ± 0.11 |
| KKRTSIEVSVKGALESHFLKCPKPSAQEITNLADSAQLEKEVVRVWFCNRRQKEKR [L36A] | -0.906 ± 0.092 |
| KKRTSIEVSVKGALESHFLKCPKPSAQEITNLADSQQLEKEVVRVWFCNRRQKEKR [L36Q] | -0.812 ± 0.13 |
| KKRTSIEVSVKGALESHFLKCPKPSAQEITNLADSLILEKEVVRVWFCNRRQKEKR [Q37I] | -0.453 ± 0.13 |
| KKRTSIEVSVKGALESHFLKCPKPSAQEITNLADSLHLEKEVVRVWFCNRRQKEKR [Q37H] | -0.034 ± 0.14 |
| KKRTSIEVSVKGALESHFLKCPKPSAQEITNLADSLWLEKEVVRVWFCNRRQKEKR [Q37W] | -0.374 ± 0.092 |
| KKRTSIEVSVKGALESHFLKCPKPSAQEITNLADSLALEKEVVRVWFCNRRQKEKR [Q37A] | 0.013 ± 0.063 |
| KKRTSIEVSVKGALESHFLKCPKPSAQEITNLADSLNLEKEVVRVWFCNRRQKEKR [Q37N] | -0.037 ± 0.13 |
| KKRTSIEVSVKGALESHFLKCPKPSAQEITNLADSLTLEKEVVRVWFCNRRQKEKR [Q37T] | -0.257 ± 0.093 |
| KKRTSIEVSVKGALESHFLKCPKPSAQEITNLADSLPLEKEVVRVWFCNRRQKEKR [Q37P] | -0.671 ± 0.13 |
| KKRTSIEVSVKGALESHFLKCPKPSAQEITNLADSLCLEKEVVRVWFCNRRQKEKR [Q37C] | -0.156 ± 0.11 |

| Variant | abundance fitness |
| --- | --- |
| KKRTSIEVSVKGALESHFLKCPKPSAQEITNLADSLGLEKEVVRVWFCNRRQKEKR [Q37G] | 0.013 ± 0.059 |
| KKRTSIEVSVKGALESHFLKCPKPSAQEITNLADSLDLEKEVVRVWFCNRRQKEKR [Q37D] | 0 ± 0.11 |
| KKRTSIEVSVKGALESHFLKCPKPSAQEITNLADSLRLEKEVVRVWFCNRRQKEKR [Q37R] | -0.072 ± 0.06 |
| KKRTSIEVSVKGALESHFLKCPKPSAQEITNLADSLFLEKEVVRVWFCNRRQKEKR [Q37F] | -0.3 ± 0.16 |
| KKRTSIEVSVKGALESHFLKCPKPSAQEITNLADSLELEKEVVRVWFCNRRQKEKR [Q37E] | -0.042 ± 0.097 |
| KKRTSIEVSVKGALESHFLKCPKPSAQEITNLADSLSLEKEVVRVWFCNRRQKEKR [Q37S] | -0.054 ± 0.068 |
| KKRTSIEVSVKGALESHFLKCPKPSAQEITNLADSLLLEKEVVRVWFCNRRQKEKR [Q37L] | -0.188 ± 0.063 |
| KKRTSIEVSVKGALESHFLKCPKPSAQEITNLADSLYLEKEVVRVWFCNRRQKEKR [Q37Y] | -0.342 ± 0.16 |
| KKRTSIEVSVKGALESHFLKCPKPSAQEITNLADDLQLEKEVVRVWFCNRRQKEKR [S35D] | -0.158 ± 0.13 |
| KKRTSIEVSVKGALESHFLKCPKPSAQEITNLADTLQLEKEVVRVWFCNRRQKEKR [S35T] | -0.07 ± 0.098 |
| KKRTSIEVSVKGALESHFLKCPKPSAQEITNLADELQLEKEVVRVWFCNRRQKEKR [S35E] | -0.032 ± 0.11 |
| KKRTSIEVSVKGALESHFLKCPKPSAQEITNLADFLQLEKEVVRVWFCNRRQKEKR [S35F] | -0.177 ± 0.098 |
| KKRTSIEVSVKGALESHFLKCPKPSAQEITNLADILQLEKEVVRVWFCNRRQKEKR [S35I] | -0.122 ± 0.11 |
| KKRTSIEVSVKGALESHFLKCPKPSAQEITNLADQLQLEKEVVRVWFCNRRQKEKR [S35Q] | -0.04 ± 0.13 |
| KKRTSIEVSVKGALESHFLKCPKPSAQEITNLADRLQLEKEVVRVWFCNRRQKEKR [S35R] | 0.117 ± 0.076 |
| KKRTSIEVSVKGALESHFLKCPKPSAQEITNLADNLQLEKEVVRVWFCNRRQKEKR [S35N] | -0.078 ± 0.13 |
| KKRTSIEVSVKGALESHFLKCPKPSAQEITNLADMLQLEKEVVRVWFCNRRQKEKR [S35M] | -0.133 ± 0.11 |
| KKRTSIEVSVKGALESHFLKCPKPSAQEITNLADLLQLEKEVVRVWFCNRRQKEKR [S35L] | -0.083 ± 0.076 |
| KKRTSIEVSVKGALESHFLKCPKPSAQEITNLADKLQLEKEVVRVWFCNRRQKEKR [S35K] | 0.162 ± 0.12 |
| KKRTSIEVSVKGALESHFLKCPKPSAQEITNLADGLQLEKEVVRVWFCNRRQKEKR [S35G] | -0.194 ± 0.077 |
| KKRTSIEVSVKGALESHFLKCPKPSAQEITNLADWLQLEKEVVRVWFCNRRQKEKR [S35W] | -0.228 ± 0.12 |
| KKRTSIEVSVKGALESHFLKCPKPSAQEITNLADPLQLEKEVVRVWFCNRRQKEKR [S35P] | -0.76 ± 0.14 |
| KKRTSIEVSVKGALESHFLKCPKPSAQEITNLADHLQLEKEVVRVWFCNRRQKEKR [S35H] | -0.048 ± 0.16 |
